Where a chain is given by its changes, count along the chain named. Names and notes keep the numbering of the source.
Columns and labels:
[1] = biological target: RILP (Rab7-interacting lysosomal protein) 1-185 (UniProt Q96NA2); test: GST-RILP 1-185 pull-down from cell lysate; conditions: reference: GFP-LIC1 wild type; sites T213
[2] = biological target: adenovirus serotype 5 hexon capsid subunit (Ad5 (adenovirus serotype 5), UniProt P04133 1-952); test: pull-down
Sequence of adenovirus serotype 5 hexon capsid subunit (P04133 whole entry): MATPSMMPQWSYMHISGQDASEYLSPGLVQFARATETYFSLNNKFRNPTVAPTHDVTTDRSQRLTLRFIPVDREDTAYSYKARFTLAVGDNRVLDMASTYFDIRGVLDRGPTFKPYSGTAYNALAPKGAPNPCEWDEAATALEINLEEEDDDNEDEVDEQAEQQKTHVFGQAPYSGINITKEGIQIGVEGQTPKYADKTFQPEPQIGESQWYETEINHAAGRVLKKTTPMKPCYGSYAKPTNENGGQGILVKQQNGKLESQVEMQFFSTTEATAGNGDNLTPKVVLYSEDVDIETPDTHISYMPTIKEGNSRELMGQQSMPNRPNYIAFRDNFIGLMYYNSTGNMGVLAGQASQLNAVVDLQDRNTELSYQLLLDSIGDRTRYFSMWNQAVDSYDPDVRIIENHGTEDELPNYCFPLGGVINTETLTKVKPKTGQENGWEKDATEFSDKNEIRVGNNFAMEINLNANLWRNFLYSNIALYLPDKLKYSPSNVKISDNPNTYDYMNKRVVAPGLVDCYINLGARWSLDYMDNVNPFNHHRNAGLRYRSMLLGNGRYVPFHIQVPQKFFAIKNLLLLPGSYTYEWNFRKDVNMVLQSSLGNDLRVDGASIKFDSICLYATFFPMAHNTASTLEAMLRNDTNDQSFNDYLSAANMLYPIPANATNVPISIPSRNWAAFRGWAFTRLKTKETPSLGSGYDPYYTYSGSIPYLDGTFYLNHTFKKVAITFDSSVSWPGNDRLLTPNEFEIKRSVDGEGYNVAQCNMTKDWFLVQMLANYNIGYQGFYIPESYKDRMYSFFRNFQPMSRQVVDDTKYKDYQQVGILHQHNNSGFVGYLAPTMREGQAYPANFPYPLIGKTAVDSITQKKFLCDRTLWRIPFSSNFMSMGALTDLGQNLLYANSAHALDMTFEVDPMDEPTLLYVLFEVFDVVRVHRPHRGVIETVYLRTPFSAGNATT

dynein light intermediate chain 1 (LIC1) (from UniProt Q9QXU8) GFP-LIC1-T213A
binding against the reference [1]: stronger

B1: bacterially expressed full-length IC1A phosphorylated with PKA catalytic subunit (natural protein, rat, UniProt Q63100 1-643, looked up)
chain: MSDKSDLKAELERKKQRLAQIREEKKRKEEERKKKEADMQQKKEPVPDDSDLDRKRRETEALLQSIGISPEPPLVQPLHFLTWDTCYFHYLVPTPMSPSSKSVSTPSEAGSQDDLGPLTRTLQWDTDPSVLQLQSDSELGRRLNKLGVSKVTQVDFLPREVVSYSKETQTPLATHQSEEDEEDEEMVEPKVGHDSELENQDKKQETKEAPPRELTEEEKQQILHSEEFLIFFDRTIRVIERALAEDSDIFFDYSGRELEEKDGDVQAGANLSFNRQFYDEHWSKHRVVTCMDWSLQYPELMVASYSNNEDAPHEPDGVALVWNMKFKKTTPEYVFHCQSSVMSVCFARFHPNLVVGGTYSGQIVLWDNRSHRRTPVQRTPLSAAAHTHPVYCVNVVGTQNAHNLITVSTDGKMCSWSLDMLSTPQESMELVYNKSKPVAVTGMAFPTGDVNNFVVGSEEGTVYTACRHGSKAGIGEVFEGHQGPVTGINCHMAVGPIDFSHLFVTSSFDWTVKLWTTKHNKPLYSFEDNADYVYDVMWSPVHPALFACVDGMGRLDLWNLNSDTEVPTASVAIEGAYALNRVRWAQGGKEVAVGDSEGRIWIYDVGELAVPHNDEWTRFARTLVEIRANRADSEEEGAVELAA
modifications: phosphorylated by PKA (the paper names IC1-T59 as the sole PKA site)
binding result [2]: binds

B2: bacterially expressed LIC1-T213D (natural protein, rat, UniProt Q9QXU8 1-523, looked up)
chain: MAAVGRVGSFGSSPPGLASTYASGPLANELASGSGGPAAGDDEDGQNLWSRILREVSTRSRSKLPTGKNVLLLGEDGAGKTSLIRRIQGIEEYKKGRGLEYLYLNVHDEDRDDQTRCNVWILDGDLYHKGLLKFSLDALSLRDTLVMLVVDMSKPWTALDSLQKWASVVREHVDKLKIPPEEMKEMEQKLIRDFQEYVEPGEDFPASPQRRADAAQEDRDDSVVLPLGADTLTHNLGLPVLVVCTKCDAISVLEKEHDYRDEHFDFIQSHIRKFCLQYGAALIYTSVKENKNIDLVYKYIVQKLYGFPYKIPAVVVEKDAVFIPAGWDNDKKIGILHENFQTLKIEDNFEDIITKPPVRKFVHEKEIMAEDDQVFLMKLQSLLAKQPPTAAGRPVDASPRVPGGSPRTPNRSVSSNVASVSPIPAGSKKIDPNMKAGATSEGVLANFFNSLLSKKTGSPGGPGVGGSPGGGAAGASTSLPPSAKKSGQKPVLSDVHAELDRITRKPASVSPTTPPSPTEGEAS
binding result [2]: binds

B3: bacterially expressed full-length LIC1 phosphorylated with PKA catalytic subunit (natural protein, rat, UniProt Q9QXU8 1-523, looked up)
chain: B2 chain with D213T
modifications: phosphorylated by PKA; T213 identified as the major PKA site
binding result [2]: binds
